Reference: patent publication US20220242963A1, “B-CELL ACTIVATING CD73 ANTIBODIES” (CORVUS PHARMACEUTICALS, INC., priority 2018, published 2022)
“And” between values parts separate entries of the source, which are not always exact repeats. Identical values can stand only once.

Legend:
[1] = Phase 1/1B clinical trial: serum levels of free CPI-006 by ELISA; assay type: in vivo, human
Procedure: FIGS. 3A-3D show the pharmacokinetics/pharmacodynamics and CD73 receptor occupancy of CPI-006 after a first infusion in human patients. […] The dotted line marks one-hundred percent occupancy CD73 receptor occupancy.
(§1) With reference to Table 1, serum samples were collected from patients treated with CPI-006 alone (i.e., monotherapy) and levels of free CPI-006 were measured by ELISA, as shown in FIG. 3A. Whole blood samples from patients treated with CPI-006 alone were fixed and receptor occupancy was measured by flow cytometry gating on CD73+CD8 T cells, as shown in FIG. 3B. As illustrated in FIGS. 3A-3D, receptor exposure to CPI-006 increases and clearance decreases with increasing doses of CPI-006, and CIP-006 is detectable for 21 days after administration of a single dose of 6 mg/kg or higher. […] Other results from the study are described below and in Table 4. BLQ is below limit of quantification. TBD is to be determined.

[2] = tested on: solid tumors; experiment: Phase 1/1B clinical trial: disease control and tumor size; assay type: in vivo, human
Description: FIGS. 6A-6B show cancer patients being treated with various doses of CPI-006 alone (FIG. 6A) or a combination therapy of CPI-006 and ciforadenant (FIG. 6B). A cycle is once every 21 days. Disease assessment occurred every 3-4 cycles. […] HDNCK refers to head and neck cancer. mCRPC refers to metastatic castration-resistant prostate cancer. BLADD refers to bladder cancer. PANC refers to pancreatic cancer. COLORECT refers to colorectal cancer. RCC refers to renal cell carcinoma. SD indicates stable disease and PD indicates progressive disease.
The highest line at day 10 represents 1 mg/kg, the second highest line at day 10 represents 3 mg/kg, the second lowest line at day 10 represents 6 mg/kg, and the lowest line at day 10 represents 12 mg/kg.
Cancer patients treated with CPI-006 monotherapy or a combination therapy of CPI-006 and ciforadenant were assessed for disease control.

[3] = target: T1, CD73 (Homo sapiens, UniProt P21589); experiment: Phase 1/1B clinical trial: CD73 receptor occupancy in peripheral blood by flow cytometry; assay type: in vivo; conditions: for sustained CD73 receptor occupancy in peripheral blood: once every 21 days
T1 construct: endogenous in cells; host or cells: Whole blood of cancer patients (CD73+ CD8 T cells)
T1 sequence (P21589 27-549): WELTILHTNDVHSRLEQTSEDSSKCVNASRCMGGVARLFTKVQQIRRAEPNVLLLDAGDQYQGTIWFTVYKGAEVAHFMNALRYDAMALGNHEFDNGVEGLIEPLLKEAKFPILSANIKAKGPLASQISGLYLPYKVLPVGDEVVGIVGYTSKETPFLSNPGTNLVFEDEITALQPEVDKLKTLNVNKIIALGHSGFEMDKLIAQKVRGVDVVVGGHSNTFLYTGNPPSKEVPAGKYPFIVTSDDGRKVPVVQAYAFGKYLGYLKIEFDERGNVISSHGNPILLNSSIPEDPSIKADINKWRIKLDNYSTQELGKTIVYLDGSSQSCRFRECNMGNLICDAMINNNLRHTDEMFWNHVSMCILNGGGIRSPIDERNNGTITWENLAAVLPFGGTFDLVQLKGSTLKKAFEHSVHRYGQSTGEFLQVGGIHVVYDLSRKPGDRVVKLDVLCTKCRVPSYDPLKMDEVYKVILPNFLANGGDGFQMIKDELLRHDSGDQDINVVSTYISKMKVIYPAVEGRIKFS
Procedure: FIGS. 3A-3D show the pharmacokinetics/pharmacodynamics and CD73 receptor occupancy of CPI-006 after a first infusion in human patients. […] The dotted line marks one-hundred percent occupancy CD73 receptor occupancy. […]
as §1

[4] = clinical data, 1, 3, and 6 mg/kg
[5] = with increasing doses of CPI-006, first infusion, FIGS. 3A-3D
[6] = pre-dose versus 30 minutes after administration, FIG. 3D

B1: CPI-006: humanized CD73 antibody, wherein the light chain is SEQ ID NO:8 and the heavy chain is SEQ ID NO:7; IgG1 Fcγ receptor-deficient (antibody, V domains shown)
VH: QVQLVQSGAEVEKPGASVKVSCKASGYTFTSYWITWVRQAPGQGLEWMGDIYPGSGNTNYNEKFKTRVTITADKSTSTAYMELSSLRSEDTAVYYCAKEGGLTTEDYALDYWGQGTLVTV
VL: EIVLTQSPATLSLSPGERATLSCRASKNVSTSGYSYMHWYQQKPGQAPRLLIYLASNLESGIPPRFSGSGYGTDFTLTINNIESEDAAYYFCQHSRELPFTFGQGTKVEIK
Serum CPI-006 at C1D8 ([1]; 1 mg/kg, patients 1-3, BLQ is below limit of quantification): BLQ
Serum CPI-006 at C1D8 ([1]; 6 mg/kg, patient 7 (Colorectal)): 23.60 µg/mL
PK dose dependence [1, 4]: dose proportional
time detectable in serum after administration ([1]; single dose of 6 mg/kg or higher): 21 days
clearance [1, 5]: decreases
exposure to CPI-006 [1, 5]: increases
size of a prostate tumor ([2]; after 2 cycles of treatment, i.e., after 42 days, FIG. 7E): reduction in the size
disease control ([2]; cancer patients, cycle once every 21 days, FIGS. 6A-6B): higher doses of CPI-006 monotherapy provide longer term disease control
target lesion ([2]; one metastatic prostate cancer patient, 6 mg/kg monotherapy, treatment ongoing through 11 cycles, FIG. 7E): decrease in the target legion
sustained CD73 receptor occupancy in peripheral blood ([3]; 1 mg/kg and 3 mg/kg doses): not
CD73 receptor occupancy on peripheral B cells ([3]; 3 mg/kg, patients 4-6 (Pancreatic, Pancreatic, Prostate)): 88.12% and 74.57% and 58.19%
sustained CD73 receptor occupancy in peripheral blood ([3]; 6 mg/kg and 12 mg/kg doses): sustained CD73 receptor occupancy
CD73 receptor occupancy on peripheral B cells ([3]; 6 mg/kg, patients 7-9 (Colorectal, Prostate, SCHN)): 97.90% and 98.31% and 101.60%
receptor occupancy dose dependence [3, 4]: dose proportional
CPI-006 binding site on cell surface CD73 (free CD73) [3, 6]: occupied
total cell surface CD73 [3, 6]: remains unchanged
